“Also recorded” adds a separate entry of the source.
Legend:
[1] = test system: TAMs around liver metastases (CD206+ macrophages); test: SPECT/CT imaging of colorectal cancer patients with synchronous liver metastasis after intravenous injection; format: in vivo, human; conditions: imaging 4-6 hours after injection
[2] = rat, in vivo, iv; cited from earlier work
[3] = human, in vivo
Protocol: A safety follow-up was conducted between 2 to 8 days after the injection.

**Q.** Which results are given for “(99m)Tc-diethylenetriaminepentaacetic acid (DTPA)-mannosyl-dextran [^99mTc tilmanocept]”?
**A.** localization on SPECT/CT image ([1]; first subject, 50 μg/2mCi i.v.): localization of ^99mTc tilmanocept in an area of larger metastasis than was observed with the FDG PET/CT; also recorded: suggests the presence of TAMs around the metastasis; localization on SPECT/CT image ([1]; second subject, 200 μg/2mCi i.v.): Localization around the metastasis was noted; excretion [2]: excreted into the urine; adverse drug reactions [3]: No adverse drug reactions were observed; tolerability of IV injection ([3]; iv): well-tolerated

Reference: patent US20190022259A1, “Use of 99mTc-tilmanocept and related molecular constructs for identifying and diagnosing malignant tumors and for monitoring therapeutic anti-tumor interventions” (Navidea Biopharmaceuticals, Inc., priority 2017, published 2019)
